Assay results reported in patent US20110190200A1 (INDIANA UNIVERSITY RESEARCH AND TECHNOLOGY, published 2011).
Numbered stars: 1 amine (or outer) side, 2 acyl side, 3 side chain; on linkers, the order of the positions; unused ones are H or OH. Square brackets hold non-standard residues; d marks the D form. Side chains are listed from the residue outwards. Ends that are not written are not given here. * marks the point of attachment. γGlu = O=C(O)[C@H](CCC(=O)[*:2])N[*:1]; Palmitoyl = CCCCCCCCCCCCCCCC(=O)*; Myristoyl = CCCCCCCCCCCCCC(=O)*; Aib = CC(C)(N)C(=O)O

Experiments:
Test in all cases: cell-based or functional assay
glucagon receptor [1] = target: T1, glucagon receptor (human, UniProt P47871 26-477)
T1 sequence (P47871 26-477): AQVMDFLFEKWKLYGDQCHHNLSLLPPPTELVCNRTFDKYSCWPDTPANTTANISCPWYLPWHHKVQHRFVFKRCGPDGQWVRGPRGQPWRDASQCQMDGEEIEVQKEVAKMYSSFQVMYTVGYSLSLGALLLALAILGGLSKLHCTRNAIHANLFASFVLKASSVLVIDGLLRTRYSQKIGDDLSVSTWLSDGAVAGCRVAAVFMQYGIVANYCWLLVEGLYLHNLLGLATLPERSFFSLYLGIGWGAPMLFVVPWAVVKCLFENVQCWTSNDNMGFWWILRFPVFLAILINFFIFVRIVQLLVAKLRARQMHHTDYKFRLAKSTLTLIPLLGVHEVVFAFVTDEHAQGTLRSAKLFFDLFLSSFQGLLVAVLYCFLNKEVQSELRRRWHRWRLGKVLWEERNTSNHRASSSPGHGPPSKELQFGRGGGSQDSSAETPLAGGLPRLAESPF

glucagon receptor [2] = target: T1, glucagon receptor; remark: listed apart in the source
glucagon receptor [3] = target: T1, glucagon receptor; remark: listed apart in the source
GLP-1 receptor [4] = target: T2, GLP-1 receptor (UniProt P43220 24-463, limits assumed)
GLP-1 receptor [5] = target: T2, GLP-1 receptor; remark: listed apart in the source
glucagon receptor [6] = target: T1, glucagon receptor; remark: listed apart in the source
GLP-1 receptor [7] = target: T2, GLP-1 receptor; remark: listed apart in the source
glucagon receptor [8] = target: T1, glucagon receptor; remark: listed apart in the source
GLP-1 receptor [9] = target: T2, GLP-1 receptor; remark: listed apart in the source
glucagon receptor [10] = target: T1, glucagon receptor; remark: listed apart in the source

How did the “EC50, in vitro activity at the glucagon receptor” value (glucagon receptor [1]) turn out when HSQGTFTSDYSKYLDSRRAQDFVQWLMDE [D28/E29 Glucagon] was run?
Its value is 0.06 nM.

What about the “Observed EC50s (nM) in Cells Overexpressing the Glucagon Receptor, Test 3” value (glucagon receptor [2]) of the same binder?
The value was 0.03 nM.

How did the “cAMP Induction, EC50” value (glucagon receptor [3]) turn out when HSQGTFTSDYSRYLDSRRAQDFVQWLMNK [Glucagon R12 K29] was run?
The value was 0.81 nM.

What about the “cAMP Induction, EC50” value (GLP-1 receptor [4]) of the same binder?
Its value is 0.41 nM.

Which “GLP-1 Receptor, Average (assay of Example 13)” value (GLP-1 receptor [5]) does the source give for HSQGTFTSDYSKYLD[Aib]RRA[Aib]DFV[Aib]WLMNT [AIB 16, 20, 24 Glucagon] here?
The value was 12.2 nM.

B1: Peptide 78** (Table 11) (peptide)
peptide: H[Aib]QGTFTSDK([γGlu-γGlu-Myristoyl])SKYLD[Aib]RRAQDFVCWLMNT-NH2
modifications: N-terminus assumed
SMILES: CCCCCCCCCCCCCC(=O)N[C@@H](CCC(=O)N[C@@H](CCC(=O)NCCCC[C@H](NC(=O)[C@H](CC(=O)O)NC(=O)[C@H](CO)NC(=O)[C@@H](NC(=O)[C@H](Cc1ccccc1)NC(=O)[C@@H](NC(=O)CNC(=O)[C@H](CCC(N)=O)NC(=O)C(C)(C)NC(=O)[C@@H](N)Cc1c[nH]cn1)[C@@H](C)O)[C@@H](C)O)C(=O)N[C@@H](CO)C(=O)N[C@@H](CCCCN)C(=O)N[C@@H](Cc1ccc(O)cc1)C(=O)N[C@@H](CC(C)C)C(=O)N[C@@H](CC(=O)O)C(=O)NC(C)(C)C(=O)N[C@@H](CCCNC(=N)N)C(=O)N[C@@H](CCCNC(=N)N)C(=O)N[C@@H](C)C(=O)N[C@@H](CCC(N)=O)C(=O)N[C@@H](CC(=O)O)C(=O)N[C@@H](Cc1ccccc1)C(=O)N[C@H](C(=O)N[C@@H](CS)C(=O)N[C@@H](Cc1c[nH]c2ccccc12)C(=O)N[C@@H](CC(C)C)C(=O)N[C@@H](CCSC)C(=O)N[C@@H](CC(N)=O)C(=O)N[C@H](C(N)=O)[C@@H](C)O)C(C)C)C(=O)O)C(=O)O
With B1 as the binder, how does the “EC50 at Glucagon Receptor” value (glucagon receptor [6]) read?
The value was 9 pM.

What about the “EC50 at GLP-1 Receptor” value (GLP-1 receptor [7]) of the same binder?
The value was 8 pM.

B2: Peptide 77** (Table 11) (peptide)
peptide: H[Aib]QGTFTSDK(Myristoyl)SKYLD[Aib]RRAQDFVCWLMNT-NH2
modifications: N-terminus assumed
SMILES: CCCCCCCCCCCCCC(=O)NCCCC[C@H](NC(=O)[C@H](CC(=O)O)NC(=O)[C@H](CO)NC(=O)[C@@H](NC(=O)[C@H](Cc1ccccc1)NC(=O)[C@@H](NC(=O)CNC(=O)[C@H](CCC(N)=O)NC(=O)C(C)(C)NC(=O)[C@@H](N)Cc1c[nH]cn1)[C@@H](C)O)[C@@H](C)O)C(=O)N[C@@H](CO)C(=O)N[C@@H](CCCCN)C(=O)N[C@@H](Cc1ccc(O)cc1)C(=O)N[C@@H](CC(C)C)C(=O)N[C@@H](CC(=O)O)C(=O)NC(C)(C)C(=O)N[C@@H](CCCNC(=N)N)C(=O)N[C@@H](CCCNC(=N)N)C(=O)N[C@@H](C)C(=O)N[C@@H](CCC(N)=O)C(=O)N[C@@H](CC(=O)O)C(=O)N[C@@H](Cc1ccccc1)C(=O)N[C@H](C(=O)N[C@@H](CS)C(=O)N[C@@H](Cc1c[nH]c2ccccc12)C(=O)N[C@@H](CC(C)C)C(=O)N[C@@H](CCSC)C(=O)N[C@@H](CC(N)=O)C(=O)N[C@H](C(N)=O)[C@@H](C)O)C(C)C
What does the source list for B2?
EC50 at Glucagon Receptor (glucagon receptor [6]): 144 pM; EC50 at GLP-1 Receptor (GLP-1 receptor [7]): 63 pM

HSQGTFTSDYSKYLD[Aib]RRAQDFVQWLMDE [AIB 16/D28/E29 Glucagon] was tested. Which “EC50, in vitro activity at the glucagon receptor” value (glucagon receptor [1]) did it give?
The value was 0.08 nM.

B3: Peptide 80** (Table 11) (peptide)
peptide: H[Aib]QGTFTSDK([γGlu-γGlu-Palmitoyl])SKYLD[Aib]RRAQDFVCWLMNT-NH2
modifications: N-terminus assumed
SMILES: CCCCCCCCCCCCCCCC(=O)N[C@@H](CCC(=O)N[C@@H](CCC(=O)NCCCC[C@H](NC(=O)[C@H](CC(=O)O)NC(=O)[C@H](CO)NC(=O)[C@@H](NC(=O)[C@H](Cc1ccccc1)NC(=O)[C@@H](NC(=O)CNC(=O)[C@H](CCC(N)=O)NC(=O)C(C)(C)NC(=O)[C@@H](N)Cc1c[nH]cn1)[C@@H](C)O)[C@@H](C)O)C(=O)N[C@@H](CO)C(=O)N[C@@H](CCCCN)C(=O)N[C@@H](Cc1ccc(O)cc1)C(=O)N[C@@H](CC(C)C)C(=O)N[C@@H](CC(=O)O)C(=O)NC(C)(C)C(=O)N[C@@H](CCCNC(=N)N)C(=O)N[C@@H](CCCNC(=N)N)C(=O)N[C@@H](C)C(=O)N[C@@H](CCC(N)=O)C(=O)N[C@@H](CC(=O)O)C(=O)N[C@@H](Cc1ccccc1)C(=O)N[C@H](C(=O)N[C@@H](CS)C(=O)N[C@@H](Cc1c[nH]c2ccccc12)C(=O)N[C@@H](CC(C)C)C(=O)N[C@@H](CCSC)C(=O)N[C@@H](CC(N)=O)C(=O)N[C@H](C(N)=O)[C@@H](C)O)C(C)C)C(=O)O)C(=O)O
Which results are given for B3?
EC50 at Glucagon Receptor (glucagon receptor [6]): 6 pM; EC50 at GLP-1 Receptor (GLP-1 receptor [7]): 8 pM

B4: Peptide dS2E16K20K30-C14 Gluc Amide (peptide)
peptide: HXQGTFTSDYSKYLDERRAKDFVQWLMNTK
modifications: d-Ser at position 2; Lys at position 30 acylated with a C14 fatty acyl group; C-terminal amide
For B4, which “EC50 at the glucagon receptor” value (glucagon receptor [8]) is on record?
Its value is 3.53 nM.

What about the “EC50 at the GLP-1 receptor” value (GLP-1 receptor [9]) of the same binder?
The value was 0.84 nM.

B5: Peptide dS2K10(C16)E16K20-Gluc Amide (peptide)
peptide: HXQGTFTSDKSKYLDERRAKDFVQWLMNT
modifications: d-Ser at position 2; Lys at position 10 acylated with a C16 fatty acyl group; C-terminal amide
With B5 as the binder, how does the “EC50 at the glucagon receptor” value (glucagon receptor [8]) read?
Its value is 0.076 nM.

And the “EC50 at the GLP-1 receptor” value (GLP-1 receptor [9])?
Its value is 0.041 nM.

B6: Peptide 79** (Table 11) (peptide)
peptide: H[Aib]QGTFTSDK([Ala-Ala-Palmitoyl])SKYLD[Aib]RRAQDFVCWLMNT-NH2
modifications: N-terminus assumed
SMILES: CCCCCCCCCCCCCCCC(=O)N[C@@H](C)C(=O)N[C@@H](C)C(=O)NCCCC[C@H](NC(=O)[C@H](CC(=O)O)NC(=O)[C@H](CO)NC(=O)[C@@H](NC(=O)[C@H](Cc1ccccc1)NC(=O)[C@@H](NC(=O)CNC(=O)[C@H](CCC(N)=O)NC(=O)C(C)(C)NC(=O)[C@@H](N)Cc1c[nH]cn1)[C@@H](C)O)[C@@H](C)O)C(=O)N[C@@H](CO)C(=O)N[C@@H](CCCCN)C(=O)N[C@@H](Cc1ccc(O)cc1)C(=O)N[C@@H](CC(C)C)C(=O)N[C@@H](CC(=O)O)C(=O)NC(C)(C)C(=O)N[C@@H](CCCNC(=N)N)C(=O)N[C@@H](CCCNC(=N)N)C(=O)N[C@@H](C)C(=O)N[C@@H](CCC(N)=O)C(=O)N[C@@H](CC(=O)O)C(=O)N[C@@H](Cc1ccccc1)C(=O)N[C@H](C(=O)N[C@@H](CS)C(=O)N[C@@H](Cc1c[nH]c2ccccc12)C(=O)N[C@@H](CC(C)C)C(=O)N[C@@H](CCSC)C(=O)N[C@@H](CC(N)=O)C(=O)N[C@H](C(N)=O)[C@@H](C)O)C(C)C
Which results are given for B6?
EC50 at Glucagon Receptor (glucagon receptor [6]): 10 pM; EC50 at GLP-1 Receptor (GLP-1 receptor [7]): 8 pM

B7: Peptide dS2K10(C14)E16K20-Gluc Amide (peptide)
peptide: HXQGTFTSDKSKYLDERRAKDFVQWLMNT
modifications: d-Ser at position 2; Lys at position 10 acylated with a C14 fatty acyl group; C-terminal amide
For B7, which “EC50 at the glucagon receptor” value (glucagon receptor [8]) is on record?
The value was 0.155 nM.

What about the “EC50 at the GLP-1 receptor” value (GLP-1 receptor [9]) of the same binder?
The value was 0.041 nM.

Which results are given for HSQGTFTSDYSKYLD[Aib]RRA[Aib]DFVQWLMNT [AIB 16, 20 Glucagon]?
Glucagon Receptor, Average (assay of Example 13) (glucagon receptor [10]): 0.26 nM; GLP-1 Receptor, Average (assay of Example 13) (GLP-1 receptor [5]): 13.6 nM

B8: Peptide dS2E16K20K30-C16 Gluc Amide (peptide)
peptide: HXQGTFTSDYSKYLDERRAKDFVQWLMNTK
modifications: d-Ser at position 2; Lys at position 30 acylated with a C16 fatty acyl group; C-terminal amide
Which “EC50 at the glucagon receptor” value (glucagon receptor [8]) does the source give for B8 here?
Its value is 4.89 nM.

And the “EC50 at the GLP-1 receptor” value (GLP-1 receptor [9])?
The value was 3.05 nM.
